Results taken from publication PMC2843741.

Molecular target: GST-CypA (UniProt P62937)
Assay: pull-down; 35S-labelled in vitro translated proteins incubated overnight in binding buffer with about 2.0 µg purified GST fusion or GST alone; glutathione Sepharose beads; 5 washes with PBS, 0.25% NP-40; SDS-10% PAGE, fluorography

Sequence of UniProt P62937 (P62937 whole entry, the tested form may be a part): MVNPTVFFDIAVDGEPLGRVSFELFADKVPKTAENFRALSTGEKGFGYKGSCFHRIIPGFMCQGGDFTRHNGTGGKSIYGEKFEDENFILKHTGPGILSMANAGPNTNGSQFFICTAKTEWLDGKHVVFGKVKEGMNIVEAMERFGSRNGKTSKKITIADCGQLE

| Substance | percent of input pulled down |
| --- | --- |
| HA-wt NS5A with in-frame deletion of amino acids 271-360 (domain or fragment) | 8 to 9 % of input |
| HA-wt NS5A with in-frame deletion of amino acids 361-451 (domain or fragment) | 5 % of input |
